Paper doi:10.1101/2025.04.29.650001 (bioRxiv, 2025)

Target: the molecule itself
Assay: crystal structure

B1: Fluoroacetate dehalogenase (FAcD) wild type (enzyme, Rhodopseudomonas palustris, UniProt Q6NAM1 1-302, looked up)
chain: MPDLADLFPGFGSEWINTSSGRIFARVGGDGPPLLLLHGFPQTHVMWHRVAPKLAERFKVIVADLPGYGWSDMPESDEQHTPYTKRAMAKQLIEAMEQLGHVHFALAGHDRGARVSYRLALDSPGRLSKLAVLDILPTYEYWQRMNRAYALKIYHWSFLAQPAPLPENLLGGDPDFYVKAKLASWTRAGDLSAFDPRAVEHYRIAFADPMRRHVMCEDYRAGAYADFEHDKIDVEAGNKIPVPMLALWGASGIAQSAATPLDVWRKWASDVQGAPIESGHFLPEEAPDQTAEALVRFFSAAP
binding result: binds

B2: Fluoroacetate dehalogenase (FAcD) Ser157Ala (enzyme, Rhodopseudomonas palustris, UniProt Q6NAM1 1-302, looked up)
chain: MPDLADLFPGFGSEWINTSSGRIFARVGGDGPPLLLLHGFPQTHVMWHRVAPKLAERFKVIVADLPGYGWSDMPESDEQHTPYTKRAMAKQLIEAMEQLGHVHFALAGHDRGARVSYRLALDSPGRLSKLAVLDILPTYEYWQRMNRAYALKIYHWAFLAQPAPLPENLLGGDPDFYVKAKLASWTRAGDLSAFDPRAVEHYRIAFADPMRRHVMCEDYRAGAYADFEHDKIDVEAGNKIPVPMLALWGASGIAQSAATPLDVWRKWASDVQGAPIESGHFLPEEAPDQTAEALVRFFSAAP
binding result: binds

B3: Fluoroacetate dehalogenase (FAcD) Ser157Thr (enzyme, Rhodopseudomonas palustris, UniProt Q6NAM1 1-302, looked up)
chain: MPDLADLFPGFGSEWINTSSGRIFARVGGDGPPLLLLHGFPQTHVMWHRVAPKLAERFKVIVADLPGYGWSDMPESDEQHTPYTKRAMAKQLIEAMEQLGHVHFALAGHDRGARVSYRLALDSPGRLSKLAVLDILPTYEYWQRMNRAYALKIYHWTFLAQPAPLPENLLGGDPDFYVKAKLASWTRAGDLSAFDPRAVEHYRIAFADPMRRHVMCEDYRAGAYADFEHDKIDVEAGNKIPVPMLALWGASGIAQSAATPLDVWRKWASDVQGAPIESGHFLPEEAPDQTAEALVRFFSAAP
binding result: binds
